Experimental data published in US20250296912A1, “AFFINITY ILLUDOFULVENE CONJUGATES” (Illudent, Inc., published 2025).
The star is where a group is joined. 3‑aminopropyl acylfulvene = analog 211, C-terminal Leu bound as amide to it; Mu = 4-morpholine-carbonyl, O=C(N1CCOCC1)*

Molecular target: prostate specific antigen (Homo sapiens)
Assay: cell-based or functional assay

IC50 (48 hour exposure), Prostate DuPro (trace PSA): 13 µM
IC50 (48 hour exposure), Prostate LnCAP (positive PSA): 0.8 µM
Binder: Mu-HSSKLQL-{3‑aminopropyl acylfulvene} [Analog 221 (Mu-His-Ser-Ser-Lys-Leu-Gln coupled to analog 207, 211-leucine)]
